B1: wild-type GST-Nkd1 [human] / in vitro translated ^35[S]-labelled Dvl1 [modified: 35S-methionine label; 35S-methionine label] [human] (parent complex)
chain 1: MGKLHSKPAAVCKRRESPEGDSFAVSAAWARKGIEEWIGRQRCPGGVSGPRQLRLAGTIGRSTRELVGDVLRDTLSEEEEDDFRLEVALPPEKTDGLGSGDEKKMERVSEPCPGSKKQLKFEELQCDVSMEEDSRQEWTFTLYDFDNNGKVTREDITSLLHTIYEVVDSSVNHSPTSSKMLRVKLTVAPDGSQSKRSVLVNQADLQSARPRAETKPTEDLRSWEKKQRAPLRFQGDSRLEQSGCYHHCVDENIERRNHYLDLAGIENYTSQFGPGSPSVAQKSELPPRTSNPTRSRSHEPEAIHIPHRKPQGVDPASFHFLDTPIAKVSELQQRLRGTQDGSKHFVRSPKAQGKSVGVGHVARGARNKPPLGPAIPAVSPSAHLAASPALLPSLAPLGHKKHKHRAKESQQGCRGLQAPLASGGPVLGREHLRELPALVVYESQAGQPVQRHEHHHHHEHHHHYHHFYQT
chain 2: MAETKIIYHMDEEETPYLVKLPVAPERVTLADFKNVLSNRPVHAYKFFFKSMDQDFGVVKEEIFDDNAKLPCFNGRVVSWLVLAEGAHSDAGSQGTDSHTDLPPPLERTGGIGDSRPPSFHPNVASSRDGMDNETGTESMVSHRRERARRRNREEAARTNGHPRGDRRRDVGLPPDSASTALSSELESSSFVDSDEDGSTSRLSSSTEQSTSSRLIRKHKRRRRKQRLRQADRASSFSSITDSTMSLNIVTVTLNMERHHFLGISIVGQSNDRGDGGIYIGSIMKGGAVAADGRIEPGDMLLQVNDVNFENMSNDDAVRVLREIVSQTGPISLTVAKCWDPTPRSYFTVPRADPVRPIDPAAWLSHTAALTGALPRYGTSPCSSAVTRTSSSSLTSSVPGAPQLEEAPLTVKSDMSAVVRVMQLPDSGLEIRDRMWLKITIANAVIGADVVDWLYTHVEGFKERREARKYASSLLKHGFLRHTVNKITFSEQCYYVFGDLCSNLATLNLNSGSSGTSDQDTLAPLPHPAAPWPLGQGYPYQYPGPPPCFPPAYQDPGFSYGSGSTGSQQSEGSKSSGSTRSSRRAPGREKERRAAGAGGSGSESDHTAPSGVGSSWRERPAGQLSRGSSPRSQASATAPGLPPPHPTTKAYTVVGGPPGGPPVRELAAVPPELTGSRQSFQKAMGNPCEFFVDIM
B2: wild-type GST-Nkd1 [human] / in vitro translated ^35[S]-labelled Dvl2 [modified: 35S-methionine label; 35S-methionine label] [not stated (human or mouse cDNA cloned)] (parent complex)
chain 1: B1 chain 1
chain 2: MAGSSTGGGGVGETKVIYHLDEEETPYLVKIPVPAERITLGDFKSVLQRPAGAKYFFKSMDQDFGVVKEEISDDNARLPCFNGRVVSWLVSSDNPQPEMAPPVHEPRAELAPPAPPLPPLPPERTSGIGDSRPPSFHPNVSSSHENLEPETETESVVSLRRERPRRRDSSEHGAGGHRTGGPSRLERHLAGYESSSTLMTSELESTSLGDSDEEDTMSRFSSSTEQSSASRLLKRHRRRRKQRPPRLERTSSFSSVTDSTMSLNIITVTLNMEKYNFLGISIVGQSNERGDGGIYIGSIMKGGAVAADGRIEPGDMLLQVNDMNFENMSNDDAVRVLRDIVHKPGPIVLTVAKCWDPSPQAYFTLPRNEPIQPIDPAAWVSHSAALTGTFPAYPGSSSMSTITSGSSLPDGCEGRGLSVHTDMASVTKAMAAPESGLEVRDRMWLKITIPNAFLGSDVVDWLYHHVEGFPERREARKYASGLLKAGLIRHTVNKITFSEQCYYVFGDLSGGCESYLVNLSLNDNDGSSGASDQDTLAPLPGATPWPLLPTFSYQYPAPHPYSPQPPPYHELSSYTYGGGSASSQHSEGSRSSGSTRSDGGAGRTGRPEERAPESKSGSGSESEPSSRGGSLRRGGEASGTSDGGPPPSRGSTGGAPNLRAHPGLHPYGPPPGMALPYNPMMVVMMPPPPPPVPPAVQPPGAPPVRDLGSVPPELTASRQSFHMAMGNPSEFFVDVM
B3: wild-type GST-Nkd1 [human] / in vitro translated ^35[S]-labelled Dvl3 [modified: 35S-methionine label; 35S-methionine label] [human] (parent complex)
chain 1: B1 chain 1
chain 2: MGETKIIYHLDGQETPYLVKLPLPAERVTLADFKGVLQRPSYKFFFKSMDDDFGVVKEEISDDNAKLPCFNGRVVSWLVSAEGSHPDPAPFCADNPSELPPPMERTGGIGDSRPPSFHPHAGGGSQENLDNDTETDSLVSAQRERPRRRDGPEHATRLNGTAKGERRREPGGYDSSSTLMSSELETTSFFDSDEDDSTSRFSSSTEQSSASRLMRRHKRRRRKQKVSRIERSSSFSSITDSTMSLNIITVTLNMEKYNFLGISIVGQSNERGDGGIYIGSIMKGGAVAADGRIEPGDMLLQVNEINFENMSNDDAVRVLREIVHKPGPITLTVAKCWDPSPRGCFTLPRSEPIRPIDPAAWVSHTAAMTGTFPAYGMSPSLSTITSTSSSITSSIPDTERLDDFHLSIHSDMAAIVKAMASPESGLEVRDRMWLKITIPNAFIGSDVVDWLYHNVEGFTDRREARKYASNLLKAGFIRHTVNKITFSEQCYYIFGDLCGNMANLSLHDHDGSSGASDQDTLAPLPHPGAAPWPMAFPYQYPPPPHPYNPHPGFPELGYSYGGGSASSQHSEGSRSSGSNRSGSDRRKEKDPKAGDSKSGGSGSESDHTTRSSLRGPRERAPSERSGPAASEHSHRSHHSLASSLRSHHTHPSYGPPGVPPLYGPPMLMMPPPPAAMGPPGAPPGRDLASVPPELTASRQSFRMAMGNPSEFFVDVM

Variants of: B1
Assay: GST-pulldown; parent: 1; read off a plot

Variant | ratio to parent
chain 1 MGKLHSKPAAVCKRRESPEGDSFAVSAAWARKGIEEWIGRQRCPGGVSGPRQLRLAGTIGRSTRELVGDVLRDTLSEEEEDDFRLEVALPPEKTDGLGSGDEKKMERVSEPCPGSKKQLKFEELQCDVSMEEDSRQEWTFTLYDFDNNGKVTREDITSLLHTIYEVVDSSVNHSPTSSKMLRVKLTVAPDGSQSKRSVLVNQADLQSARPRAETKPTEDLRSWEKKQRAPLRFQGDSRLEQSGCYHHCVDENIERRNHYLDLAGIENYTSQFGPGSPSVAQKSELPPHTSNPTRSRSHEPEAIHIPHRKPQGVDPASFHFLDTPIAKVSELQQRLRGTQDGSKHFVRSPKAQGKSVGVGHVARGARNKPPLGPAIPAVSPSAHLAASPALLPSLAPLGHKKHKHRAKESQQGCRGLQAPLASGGPVLGREHLRELPALVVYESQAGQPVQRHEHHHHHEHHHHYHHFYQT [chain 1 R288H] | ~0.19

Variants of: B1
Assay: yeast two-hybrid (quantitative ONPG assay); parent: 6.2; read off a plot

Variant | response [ONPG units]
chain 1 MGKLHSKPAAVCKRRESPEGDSFAVSAAWARKGIEEWIGRQRCPGGVSGPRQLRLAGTIGRSTRELVGDVLRDTLSEEEEDDFRLEVALPPEKTDGLGSGDEKKMERVSEPCPGSKKQLKFEELQCDVSMEEDSRQEWTFTLYDFDNNGKVTREDITSLLHTIYEVVDSSVNHSPTSSKMLRVKLTVAPDGSQSKRSVLVNQADLQSARPRAETKPTEDLRSWEKKQRAPLRFQGDSRLEQSGCYHHCVDENIERRNHYLDLAGIENYTSQFGPGSPSVAQKSELPPHTSNPTRSRSHEPEAIHIPHRKPQGVDPASFHFLDTPIAKVSELQQRLRGTQDGSKHFVRSPKAQGKSVGVGHVARGARNKPPLGPAIPAVSPSAHLAASPALLPSLAPLGHKKHKHRAKESQQGCRGLQAPLASGGPVLGREHLRELPALVVYESQAGQPVQRHEHHHHHEHHHHYHHFYQT [chain 1 R288H] | ~2.4

Variants of: B2
Assay: GST-pulldown; parent: 1; read off a plot

Variant | ratio to parent
chain 1 MGKLHSKPAAVCKRRESPEGDSFAVSAAWARKGIEEWIGRQRCPGGVSGPRQLRLAGTIGRSTRELVGDVLRDTLSEEEEDDFRLEVALPPEKTDGLGSGDEKKMERVSEPCPGSKKQLKFEELQCDVSMEEDSRQEWTFTLYDFDNNGKVTREDITSLLHTIYEVVDSSVNHSPTSSKMLRVKLTVAPDGSQSKRSVLVNQADLQSARPRAETKPTEDLRSWEKKQRAPLRFQGDSRLEQSGCYHHCVDENIERRNHYLDLAGIENYTSQFGPGSPSVAQKSELPPHTSNPTRSRSHEPEAIHIPHRKPQGVDPASFHFLDTPIAKVSELQQRLRGTQDGSKHFVRSPKAQGKSVGVGHVARGARNKPPLGPAIPAVSPSAHLAASPALLPSLAPLGHKKHKHRAKESQQGCRGLQAPLASGGPVLGREHLRELPALVVYESQAGQPVQRHEHHHHHEHHHHYHHFYQT [chain 1 R288H] | ~0.14

Variants of: B2
Assay: yeast two-hybrid (quantitative ONPG assay); parent: 4.7; read off a plot

Variant | response [ONPG units]
chain 1 MGKLHSKPAAVCKRRESPEGDSFAVSAAWARKGIEEWIGRQRCPGGVSGPRQLRLAGTIGRSTRELVGDVLRDTLSEEEEDDFRLEVALPPEKTDGLGSGDEKKMERVSEPCPGSKKQLKFEELQCDVSMEEDSRQEWTFTLYDFDNNGKVTREDITSLLHTIYEVVDSSVNHSPTSSKMLRVKLTVAPDGSQSKRSVLVNQADLQSARPRAETKPTEDLRSWEKKQRAPLRFQGDSRLEQSGCYHHCVDENIERRNHYLDLAGIENYTSQFGPGSPSVAQKSELPPHTSNPTRSRSHEPEAIHIPHRKPQGVDPASFHFLDTPIAKVSELQQRLRGTQDGSKHFVRSPKAQGKSVGVGHVARGARNKPPLGPAIPAVSPSAHLAASPALLPSLAPLGHKKHKHRAKESQQGCRGLQAPLASGGPVLGREHLRELPALVVYESQAGQPVQRHEHHHHHEHHHHYHHFYQT [chain 1 R288H] | ~2.5

Variants of: B3
Assay: GST-pulldown; parent: 1; read off a plot

Variant | ratio to parent
chain 1 MGKLHSKPAAVCKRRESPEGDSFAVSAAWARKGIEEWIGRQRCPGGVSGPRQLRLAGTIGRSTRELVGDVLRDTLSEEEEDDFRLEVALPPEKTDGLGSGDEKKMERVSEPCPGSKKQLKFEELQCDVSMEEDSRQEWTFTLYDFDNNGKVTREDITSLLHTIYEVVDSSVNHSPTSSKMLRVKLTVAPDGSQSKRSVLVNQADLQSARPRAETKPTEDLRSWEKKQRAPLRFQGDSRLEQSGCYHHCVDENIERRNHYLDLAGIENYTSQFGPGSPSVAQKSELPPHTSNPTRSRSHEPEAIHIPHRKPQGVDPASFHFLDTPIAKVSELQQRLRGTQDGSKHFVRSPKAQGKSVGVGHVARGARNKPPLGPAIPAVSPSAHLAASPALLPSLAPLGHKKHKHRAKESQQGCRGLQAPLASGGPVLGREHLRELPALVVYESQAGQPVQRHEHHHHHEHHHHYHHFYQT [chain 1 R288H] | ~0.7

Variants of: B3
Assay: yeast two-hybrid (quantitative ONPG assay); parent: 4; read off a plot

Variant | response [ONPG units]
chain 1 MGKLHSKPAAVCKRRESPEGDSFAVSAAWARKGIEEWIGRQRCPGGVSGPRQLRLAGTIGRSTRELVGDVLRDTLSEEEEDDFRLEVALPPEKTDGLGSGDEKKMERVSEPCPGSKKQLKFEELQCDVSMEEDSRQEWTFTLYDFDNNGKVTREDITSLLHTIYEVVDSSVNHSPTSSKMLRVKLTVAPDGSQSKRSVLVNQADLQSARPRAETKPTEDLRSWEKKQRAPLRFQGDSRLEQSGCYHHCVDENIERRNHYLDLAGIENYTSQFGPGSPSVAQKSELPPHTSNPTRSRSHEPEAIHIPHRKPQGVDPASFHFLDTPIAKVSELQQRLRGTQDGSKHFVRSPKAQGKSVGVGHVARGARNKPPLGPAIPAVSPSAHLAASPALLPSLAPLGHKKHKHRAKESQQGCRGLQAPLASGGPVLGREHLRELPALVVYESQAGQPVQRHEHHHHHEHHHHYHHFYQT [chain 1 R288H] | ~3

Source: publication PMC2776356 (2009)
